The record followed here is publication PMC8486122 (2021).

The assay has as its target RTX751 (ACT residues 751–1706) (Bordetella pertussis, UniProt P0DKX7 751-1706). As to the kind of experiment: SPR.

Chain of RTX751 (ACT residues 751–1706) (P0DKX7 751-1706): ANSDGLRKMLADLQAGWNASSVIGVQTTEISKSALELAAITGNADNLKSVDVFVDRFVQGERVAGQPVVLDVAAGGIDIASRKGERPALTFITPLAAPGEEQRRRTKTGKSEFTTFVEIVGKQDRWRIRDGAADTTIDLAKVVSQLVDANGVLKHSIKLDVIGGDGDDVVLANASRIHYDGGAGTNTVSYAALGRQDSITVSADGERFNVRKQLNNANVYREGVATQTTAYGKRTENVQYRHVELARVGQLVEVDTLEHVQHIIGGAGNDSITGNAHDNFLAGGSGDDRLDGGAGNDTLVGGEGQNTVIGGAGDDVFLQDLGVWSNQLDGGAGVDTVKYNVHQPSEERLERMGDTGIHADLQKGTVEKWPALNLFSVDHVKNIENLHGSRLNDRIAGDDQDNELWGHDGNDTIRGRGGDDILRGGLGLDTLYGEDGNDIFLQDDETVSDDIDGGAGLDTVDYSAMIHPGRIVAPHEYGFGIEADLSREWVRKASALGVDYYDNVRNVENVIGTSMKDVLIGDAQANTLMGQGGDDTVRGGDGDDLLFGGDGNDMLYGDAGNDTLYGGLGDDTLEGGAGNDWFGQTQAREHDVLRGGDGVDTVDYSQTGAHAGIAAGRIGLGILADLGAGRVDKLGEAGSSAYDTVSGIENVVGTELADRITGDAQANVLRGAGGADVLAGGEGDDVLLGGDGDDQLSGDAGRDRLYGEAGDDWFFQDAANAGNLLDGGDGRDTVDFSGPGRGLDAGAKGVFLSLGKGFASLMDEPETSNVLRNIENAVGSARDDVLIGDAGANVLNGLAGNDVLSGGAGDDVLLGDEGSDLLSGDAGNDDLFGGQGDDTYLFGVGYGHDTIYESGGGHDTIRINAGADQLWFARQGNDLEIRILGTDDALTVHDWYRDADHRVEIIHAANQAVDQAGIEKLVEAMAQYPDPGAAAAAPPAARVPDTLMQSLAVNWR

B1: M1H5 Fab (Fab, V domains shown)
VH: EVNLVESGGDLVKPGGSLKLSCAASGFTFSSYGMSWVRQTPDKRLEWVATISSGGTYTYYPDSVKGRFTISRDNAKNTLYLQMSSLKSEDTAMYYCAREIMRGGGYYFDYWSQGTTLTVSS
VL: DIQMIQSTSSLSASLGDRVTISCRASQDISNYLNWYQQKPDGTVKLLIYYTSRLHSGVPSRFSGSGSGTDYSLTISNLEQEDIATYFCQQGNTLPYTFGGGTKLEIK
B1: the dissociation rate constant (koff) came to 0.00102 s⁻¹.

B2: M2B10 Fab (Fab, V domains shown)
VH: EVQLQQSGAELVRPGTSVKVSCKASGYAFTNYLIEWVKQRPGQGLEWIGVINPGIGNTNYNEKFKGKATLTADKSSSTVYMQLSSLTSDDSAVYFCARGLNYGSSQHWYFDVWGAGTSVTVSS
VL: IVMTQSPAILSASLGERVTMTCTASSSVSSSYLHWYQQKPGSSPKLWIYSTSNLASGVPARFSGSGSGTSYSLTISSMEAEDAATYYCHQYHRSPPTFGAGTKLEIK
In the case of B2, the off-rate constant (koff) was found to be 0.00121 s⁻¹.
